In PMC11417369, “DNA sequence and chromatin differentiate sequence-specific transcription factor binding in the human malaria parasite Plasmodium falciparum”:

T1: SIP2 D1 (Plasmodium falciparum, UniProt C6KSN9 177-235)
T1 sequence: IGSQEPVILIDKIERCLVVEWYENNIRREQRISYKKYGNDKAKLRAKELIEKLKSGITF

B1: GTGCAC_negctrl_site663 (dsDNA)
DNA 1: ATAAAAATAAATAAATTATATAAATGTAATATGAAA
DNA 2: TTTCATATTACATTTATATAATTTATTTATTTTTAT
B2: GTGCAC_site9401 (dsDNA)
DNA 1: AAAAAAAAAAAAAAGGTGCATACTTTGAATTAATAT
DNA 2: ATATTAATTCAAAGTATGCACCTTTTTTTTTTTTTT
B3: GTGCAC_site9733 (dsDNA)
DNA 1: TAAAAATTAAAAAGGGTGCAAAAAAAAAAAAAAAAA
DNA 2: TTTTTTTTTTTTTTTTTGCACCCTTTTTAATTTTTA
B4: GTGCAC_site10263 (dsDNA)
DNA 1: TTTAATTATTAAATGGTGCACTTGAAATATAAAAAT
DNA 2: ATTTTTATATTTCAAGTGCACCATTTAATAATTAAA
B5: GTGCAC_site9855 (dsDNA)
DNA 1: TTTATTTTCCAAAGGGTGCACATAGTTAAAACGATA
DNA 2: TATCGTTTTAACTATGTGCACCCTTTGGAAAATAAA
B6: GTGCAC_site10157 (dsDNA)
DNA 1: TTTATTTTCCAAAGGGTGCACATAGTTGAAACGATA
DNA 2: TATCGTTTCAACTATGTGCACCCTTTGGAAAATAAA
B7: GTGCAC_site10530 (dsDNA)
DNA 1: ATTAATAATCGAAAGGTGCACTTTGATTTGATAACA
DNA 2: TGTTATCAAATCAAAGTGCACCTTTCGATTATTAAT
B8: GTGCAC_site10767 (dsDNA)
DNA 1: TGTTTTATTTAGAAGGTGCACATTAATATTAAATAA
DNA 2: TTATTTAATATTAATGTGCACCTTCTAAATAAAACA
B9: GTGCAC_site10574 (dsDNA)
DNA 1: AATTAATGGCTAAAGGTGCACAATATATATATTACA
DNA 2: TGTAATATATATATTGTGCACCTTTAGCCATTAATT
B10: GTGCAC_site9943 (dsDNA)
DNA 1: AATTAATGGTTAAAGGTGCACAATACATATATTACA
DNA 2: TGTAATATATGTATTGTGCACCTTTAACCATTAATT
B11: GTGCAC_site9660 (dsDNA)
DNA 1: CTTTTTTTTTTGGGGGTGCATGCAAGACATATATTT
DNA 2: AAATATATGTCTTGCATGCACCCCCAAAAAAAAAAG
B12: GTGCAC_site10264 (dsDNA)
DNA 1: TTATTTATTTATTGGGTGCACTTGATTTAAATATGC
DNA 2: GCATATTTAAATCAAGTGCACCCAATAAATAAATAA
B13: GTGCAC_site10453 (dsDNA)
DNA 1: TATAAGTAGATAAGGGTGCACAATATAAATATATAG
DNA 2: CTATATATTTATATTGTGCACCCTTATCTACTTATA
B14: GTGCAC_site9895 (dsDNA)
DNA 1: ATTGAATTCCAACTGGTGCACCAGTAAGATTGAAAA
DNA 2: TTTTCAATCTTACTGGTGCACCAGTTGGAATTCAAT
B15: GTGCAC_site9881 (dsDNA)
DNA 1: TCCGCATGTACATGGGTGCACATAACACCCATTTAA
DNA 2: TTAAATGGGTGTTATGTGCACCCATGTACATGCGGA
B16: GTGCAC_site9899 (dsDNA)
DNA 1: CTTGTGCTTTATAGGGTGCACATTTTGTTTTGGTAA
DNA 2: TTACCAAAACAAAATGTGCACCCTATAAAGCACAAG
B17: GTGCAC_site10337 (dsDNA)
DNA 1: GGGATATTTTAAAGGGTGCATATTATTAAAATAATG
DNA 2: CATTATTTTAATAATATGCACCCTTTAAAATATCCC
B18: GTGCAC_site9987 (dsDNA)
DNA 1: ATATCTTATAATACGGTGCACTTGACATGAACAACT
DNA 2: AGTTGTTCATGTCAAGTGCACCGTATTATAAGATAT
B19: GTGCAC_site9928 (dsDNA)
DNA 1: TTAACCGGTTTATGGGTGCACATTCTTCTTAAATAA
DNA 2: TTATTTAAGAAGAATGTGCACCCATAAACCGGTTAA
B20: GTGCAC_site10518 (dsDNA)
DNA 1: ATATATTTCAAAGGGGTGCAGGCATATTTAAGCAAA
DNA 2: TTTGCTTAAATATGCCTGCACCCCTTTGAAATATAT
B21: GTGCAC_site10047 (dsDNA)
DNA 1: TATAATTTTTACTGGGTGCACTCGATATTTTAAATA
DNA 2: TATTTAAAATATCGAGTGCACCCAGTAAAAATTATA
B22: GTGCAC_site10597 (dsDNA)
DNA 1: TGAACTCAACAAAGGGTGCATAACAAAAATAGACGT
DNA 2: ACGTCTATTTTTGTTATGCACCCTTTGTTGAGTTCA
B23: GTGCAC_site10223 (dsDNA)
DNA 1: TTAATTATGGACAGGGTGCACATGAATAATAATACC
DNA 2: GGTATTATTATTCATGTGCACCCTGTCCATAATTAA
B24: GTGCAC_site9513 (dsDNA)
DNA 1: TATATATGTATATGTGTGCACCTTATTTCTTTTATT
DNA 2: AATAAAAGAAATAAGGTGCACACATATACATATATA
B25: GTGCAC_site10495 (dsDNA)
DNA 1: ATATATATAATATAGGTGCACTACTTATTTAAAAAA
DNA 2: TTTTTTAAATAAGTAGTGCACCTATATTATATATAT
B26: GTGCAC_site9503 (dsDNA)
DNA 1: ATCTATTTGTAAAGGGTGCGCATATCAATAAAAAAT
DNA 2: ATTTTTTATTGATATGCGCACCCTTTACAAATAGAT
B27: GTGCAC_site9950 (dsDNA)
DNA 1: AAAAAAAAAAAAATGGTGCAACTTTGTTAAAGGAAA
DNA 2: TTTCCTTTAACAAAGTTGCACCATTTTTTTTTTTTT
B28: GTGCAC_site10229 (dsDNA)
DNA 1: CACATTAATTTTTGGGTGCACTTGGGAAATTTTGGT
DNA 2: ACCAAAATTTCCCAAGTGCACCCAAAAATTAATGTG
B29: GTGCAC_site10010 (dsDNA)
DNA 1: AACCATTGGGAAAGGGTGCACATATATATATATATA
DNA 2: TATATATATATATATGTGCACCCTTTCCCAATGGTT
B30: GTGCAC_site10477 (dsDNA)
DNA 1: AAATATTTCTGCAAGGTGCACTTTATAAATCTTTGA
DNA 2: TCAAAGATTTATAAAGTGCACCTTGCAGAAATATTT
B31: GTGCAC_site9617 (dsDNA)
DNA 1: TTTTTTTTTTTTTGTGTGCACCTTATTTTTTTGTAT
DNA 2: ATACAAAAAAATAAGGTGCACACAAAAAAAAAAAAA
B32: GTGCAC_negctrl_site64 (dsDNA)
DNA 1: TGCAAATTTAACAAAAAAAAAAAAAAAAAAAAAAAA
DNA 2: TTTTTTTTTTTTTTTTTTTTTTTTGTTAAATTTGCA

Target: T1, SIP2 D1
Assay: gcPBM; about 25 ug protein; PBS, 1% milk, 0.2 mg/ml BSA, salmon testes DNA, 0.03% Triton X-100
Conditions: tags: N-terminal GST (pGEX-4T-1), kept; label: surface-attached array probe

For B1, which binding signal is on record?
Its binding signal is 6.92 ln median PBM intensity, better of two orientations.

Which binding signal does the source give for B2 here?
Its binding signal is 11.7 ln median PBM intensity, better of two orientations.

For B3, which binding signal is on record?
Its binding signal is 11.6 ln median PBM intensity, better of two orientations.

With B4 as the binder, how does the binding signal read?
Its binding signal is 11.8 ln median PBM intensity, better of two orientations.

B5 was tested. Which binding signal did it give?
The binding signal was 11.9 ln median PBM intensity, better of two orientations.

With B6 as the binder, how does the binding signal read?
The binding signal was 11.9 ln median PBM intensity, better of two orientations.

For B7, which binding signal is on record?
Its binding signal is 12.2 ln median PBM intensity, better of two orientations.

How did the binding signal turn out when B8 was run?
Its binding signal is 11.8 ln median PBM intensity, better of two orientations.

With B9 as the binder, how does the binding signal read?
Its binding signal is 11.7 ln median PBM intensity, better of two orientations.

For B10, which binding signal is on record?
Its binding signal is 11.6 ln median PBM intensity, better of two orientations.

Which binding signal does the source give for B11 here?
Its binding signal is 11.5 ln median PBM intensity, better of two orientations.

Which binding signal does the source give for B12 here?
The binding signal was 11.8 ln median PBM intensity, better of two orientations.

How did the binding signal turn out when B13 was run?
Its binding signal is 12.1 ln median PBM intensity, better of two orientations.

Which binding signal does the source give for B14 here?
Its binding signal is 11.6 ln median PBM intensity, better of two orientations.

For B15, which binding signal is on record?
The binding signal was 11.6 ln median PBM intensity, better of two orientations.

How did the binding signal turn out when B16 was run?
Its binding signal is 11.9 ln median PBM intensity, better of two orientations.

B17 was tested. Which binding signal did it give?
Its binding signal is 11.8 ln median PBM intensity, better of two orientations.

How did the binding signal turn out when B18 was run?
The binding signal was 11.9 ln median PBM intensity, better of two orientations.

For B19, which binding signal is on record?
Its binding signal is 11.9 ln median PBM intensity, better of two orientations.

With B20 as the binder, how does the binding signal read?
Its binding signal is 11.6 ln median PBM intensity, better of two orientations.

With B21 as the binder, how does the binding signal read?
Its binding signal is 12.2 ln median PBM intensity, better of two orientations.

With B22 as the binder, how does the binding signal read?
The binding signal was 11.6 ln median PBM intensity, better of two orientations.

How did the binding signal turn out when B23 was run?
The binding signal was 11.9 ln median PBM intensity, better of two orientations.

For B24, which binding signal is on record?
Its binding signal is 11.7 ln median PBM intensity, better of two orientations.

Which binding signal does the source give for B25 here?
The binding signal was 11.7 ln median PBM intensity, better of two orientations.

How did the binding signal turn out when B26 was run?
The binding signal was 11.6 ln median PBM intensity, better of two orientations.

B27 was tested. Which binding signal did it give?
Its binding signal is 11.6 ln median PBM intensity, better of two orientations.

How did the binding signal turn out when B28 was run?
The binding signal was 11.6 ln median PBM intensity, better of two orientations.

Which binding signal does the source give for B29 here?
Its binding signal is 12.2 ln median PBM intensity, better of two orientations.

With B30 as the binder, how does the binding signal read?
The binding signal was 12.1 ln median PBM intensity, better of two orientations.

How did the binding signal turn out when B31 was run?
The binding signal was 11.8 ln median PBM intensity, better of two orientations.

B32 was tested. Which binding signal did it give?
Its binding signal is 6.92 ln median PBM intensity, better of two orientations.
